Where a chain is given by its changes, count along the chain named.
Key:
Test in all cases: SPR, mAb captured, C2 mutant analyte;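 further: Anti-C2 mAbs captured on goat anti-human IgG Biacore CM5 chips, alanine or serine C2 surface mutants flowed over at 37 °C, double-referenced sensorgrams fitted to a 1:1 binding model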
human C2 E686A = molecular target: T1, human C2 E686A (human, UniProt P06681 21-752)
T1 sequence: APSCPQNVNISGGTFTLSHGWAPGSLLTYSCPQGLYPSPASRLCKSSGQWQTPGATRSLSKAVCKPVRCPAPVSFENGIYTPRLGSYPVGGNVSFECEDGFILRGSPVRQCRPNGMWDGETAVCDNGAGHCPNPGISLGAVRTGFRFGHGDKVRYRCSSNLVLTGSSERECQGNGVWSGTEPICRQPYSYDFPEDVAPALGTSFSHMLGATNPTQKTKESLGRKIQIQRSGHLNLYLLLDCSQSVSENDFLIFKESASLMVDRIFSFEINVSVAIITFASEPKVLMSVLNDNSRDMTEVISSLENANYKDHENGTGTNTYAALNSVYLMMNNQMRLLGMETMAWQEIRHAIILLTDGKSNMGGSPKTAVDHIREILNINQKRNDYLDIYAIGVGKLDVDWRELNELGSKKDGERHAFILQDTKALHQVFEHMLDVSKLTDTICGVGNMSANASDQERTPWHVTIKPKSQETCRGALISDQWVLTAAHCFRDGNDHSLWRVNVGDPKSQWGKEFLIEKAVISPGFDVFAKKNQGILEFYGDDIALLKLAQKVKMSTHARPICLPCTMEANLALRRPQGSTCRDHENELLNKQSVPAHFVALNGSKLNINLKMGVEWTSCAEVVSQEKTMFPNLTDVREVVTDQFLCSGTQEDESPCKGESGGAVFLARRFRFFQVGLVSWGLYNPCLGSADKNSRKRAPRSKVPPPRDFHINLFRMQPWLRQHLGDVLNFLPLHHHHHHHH

human C2 D269A = molecular target: T2, human C2 D269A (human, UniProt P06681 21-752)
T2 sequence: T1 sequence with D249A, A666E

human C2 D282A = molecular target: T3, human C2 D282A (human, UniProt P06681 21-752)
T3 sequence: T1 sequence with D262A, A666E

human C2 N424A = molecular target: T4, human C2 N424A (human, UniProt P06681 21-752)
T4 sequence: T1 sequence with N404A, A666E

Kd (human C2 E686A): 139 nM
Kd (human C2 D269A): 17.2 nM
binding result (human C2 D282A): no binding
Kd (human C2 N424A): 16.1 nM
B1: RF16-214 (antibody, V domains shown)
VH: EVQLLESGGGLVQPGGSLRLSCAASGFTFSWYQMMWVRQAPGKGLEWVSRIYPSGGGTAYADSVKGRFTISRDNSKNTLYLQMNSLRAEDTAVYYCARDAGYGDNWGQGTLVTVSS
VL: QSALTQPPSVSVSPGQTASITCSGDKLGEKYASWYQQKAGQSPVMVIYQDRKRPSGIPERFSGSNSGNTATLTISGTQAMDEADYYCQAWDTRAVVFGGGTKLTVLG

Reference: US20220332804A1 (CSL INNOVATION, published 2022)
